T1: Recombinant human Notch4 (human, UniProt Q99466 24-1447, limits assumed)
T1 construct: also called Notch4 analyte; Notch4 (antigen)
T1 sequence: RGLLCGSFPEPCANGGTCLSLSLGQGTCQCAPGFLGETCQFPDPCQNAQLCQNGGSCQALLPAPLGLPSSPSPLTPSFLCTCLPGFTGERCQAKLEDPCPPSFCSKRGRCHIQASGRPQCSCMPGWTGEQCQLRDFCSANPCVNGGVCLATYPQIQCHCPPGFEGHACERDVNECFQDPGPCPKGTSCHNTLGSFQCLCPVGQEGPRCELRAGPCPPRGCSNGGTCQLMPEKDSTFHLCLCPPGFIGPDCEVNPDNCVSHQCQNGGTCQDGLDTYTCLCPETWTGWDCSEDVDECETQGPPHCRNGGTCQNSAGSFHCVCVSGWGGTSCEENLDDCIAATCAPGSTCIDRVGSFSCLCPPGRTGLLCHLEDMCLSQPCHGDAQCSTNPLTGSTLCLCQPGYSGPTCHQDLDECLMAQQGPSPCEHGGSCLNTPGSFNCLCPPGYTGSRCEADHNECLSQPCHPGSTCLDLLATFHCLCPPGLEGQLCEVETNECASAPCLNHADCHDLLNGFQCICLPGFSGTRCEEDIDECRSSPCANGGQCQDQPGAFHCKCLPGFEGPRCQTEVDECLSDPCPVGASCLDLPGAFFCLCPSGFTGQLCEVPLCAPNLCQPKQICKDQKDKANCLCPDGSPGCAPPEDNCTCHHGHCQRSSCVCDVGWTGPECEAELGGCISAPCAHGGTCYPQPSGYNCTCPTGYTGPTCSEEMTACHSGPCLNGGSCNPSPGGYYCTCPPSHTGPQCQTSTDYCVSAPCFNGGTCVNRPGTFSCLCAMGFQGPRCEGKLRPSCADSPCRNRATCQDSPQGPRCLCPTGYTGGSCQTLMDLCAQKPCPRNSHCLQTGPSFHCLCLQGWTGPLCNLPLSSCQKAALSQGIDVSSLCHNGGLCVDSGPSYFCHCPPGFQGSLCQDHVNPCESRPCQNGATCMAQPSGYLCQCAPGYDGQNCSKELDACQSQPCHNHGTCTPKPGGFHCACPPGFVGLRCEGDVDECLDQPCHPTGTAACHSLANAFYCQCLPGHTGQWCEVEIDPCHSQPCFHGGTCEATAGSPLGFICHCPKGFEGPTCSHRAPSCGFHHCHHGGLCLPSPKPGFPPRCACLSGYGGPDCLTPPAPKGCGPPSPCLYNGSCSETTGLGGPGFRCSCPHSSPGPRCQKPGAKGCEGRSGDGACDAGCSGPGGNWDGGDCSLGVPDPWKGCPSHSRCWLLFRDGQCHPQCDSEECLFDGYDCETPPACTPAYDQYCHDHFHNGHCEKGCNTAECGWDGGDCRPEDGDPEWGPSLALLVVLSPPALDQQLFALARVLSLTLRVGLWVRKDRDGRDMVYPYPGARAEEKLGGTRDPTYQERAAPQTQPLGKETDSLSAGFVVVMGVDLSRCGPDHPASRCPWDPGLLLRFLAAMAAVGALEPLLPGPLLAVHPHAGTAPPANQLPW

B1: G04-Lib6-Pl2 (antibody, V domains shown)
VH: EVQLVQSGAEVKKPGASVKVSCKASGYSFTKSGIHWVRQAPGQGLEWMGWINPRTGNINYAQKLQGRGTMTTDPSTSTAYMELRSLRSDDTAVYYCARTHLGSSSSPPGYYYGMDVWGQGTTVTVSS
VL: ESALTQPASVSGSPGQSITISCTGTNIGAKAVSWYQQHPGKAPKLMIYAENKRPSGVSNRFSGSKSGNTASLTISGLQAEDEADYYCQAWDNRAILFGGGTKLTVL
notes: Tested as an antibody captured by anti-human IgG Fc
B2: iggrefmat 6-16 (antibody, V domains shown)
VH: EVQLVESGGGLVQPGRSLRLSCAASEFSFSRFDMHWVRQAPGKGLEWVSAISSSGSYKDYADSVEGRFTISRDNAKNSLYLQMNSLRAEDTAVYYCAREAYGDYGKPFDYWGQGTLVTVSS
VL: DIQMTQSPSSLSASVGDRVTITCRASQSISRNLAWYQQKPGKAPKLLIYAGSTLQRGVPSRFSGSGSGTDFTLTISSLQPEDVATYYCLQANMYPLTFGGGTKV
notes: as for B1
B3: iggrefmat 2-12 (antibody, V domains shown)
VH: EVQLVESGGGLVQPGGSLRLSCAASGFSFGTYSMSWVRQAPGKGLELVASIDTAGTPYYPDSVKGRFTISRDNAKNSLYLQMNSLRAEDTAVYYCARSYSGYDPYDAFDIWGQGTMVTVSS
VL: DIVMTQSPLSLPVTPGEPASISCRSSRSLVHGSGDNYLHWYLQKPGQSPQLLIYDASNRFSGVPDRFSGSGSGTDFTLKISRVEAEDVGVYYCAQTLQIPLTFGGGTKVEIK
notes: Tested as an antibody captured by anti-human IgG Fc; also called E08-Lib3-Pl1
B4: iggrefmat 6-28 (antibody, V domains shown)
VH: EVQLVESGGGLVQPGRSLRLSCAASGFSFSDYHMHWVRQAPGKGLEWVGAISGSAYTTDYADSVEGRFTISRDNAKNSLYLQMNSLRAEDTAVYYCARDDYNKDGFDPWGQGTLVTVSS
VL: DIQMTQSPSSLSASVGDRVTITCRASQSIYSYLAWYQQKPGKAPKLLIYDASRLQSGVPSRFSGSGSGTDFTLTISSLQPEDVATYYCQQGYRSPITFGGGTKVEIK
notes: Tested as an antibody captured by anti-human IgG Fc; also called E03-Lib8H1N4
B5: iggrefmat 1-34 (antibody, V domains shown)
VH: QVQLVQSGAEVKKPGASVKVSCKVSGYTLTKSSIHWVRQAPGKGLEWMGGINPSAGTRIYAQKFQGRVTMTEDTSTDTAYMELSSLKSEDTAVYYCVRGSNPNVWGKGTTVTVSS
VL: DIQMTQSPSSVSASVGDRVTITCRASQTIGNYLAWYQQKPGKAPKLLIYKASTLASGVPSRFSGSGSGTDFTLTISSLQPEDFANYYCQQYNFYPRTFGGGTKVEIK
notes: as for B1
B6: iggrefmat 1-12 (antibody, V domains shown)
VH: QVQLVQSGAEVKKPGASVKVSCKVSGYPFSNYAIHWVRQAPGKGLEWMGGISPYTGKTIYAQKFQGRVTMTEDTSTDTAYMELSSLKSEDTAVYYCAFSRYYYDSSGYHGDAFDIWGQGTMVTVSS
VL: DIQMTQSPSSVSASVGDRVTITCRASQGISNHLAWYQQKPGKAPKLLIYDASNRATGVPSRFSGSGSGTDFTLTISSLQPEDFANYYCQQSFTIPSFGGGTKVEIK
notes: Tested as an antibody captured by anti-human IgG Fc; also called C02-Lib1_Pl1
B7: C08-Lib3-Pl1 (antibody, V domains shown)
VH: EVQLVESGGGLVQPGGSLRLSCAASGLPFSSYGMSWVRQAPGKGLELVASIGTSGTRTYYPDSVKGRFTISRDNAKNSLYLQMNSLRAEDTAVYYCARLGEGSGWSYFDYWGQGTLVTVSS
VL: DIVMTQSPLSLPVTPGEPASISCRSSQSLLHSTGYNYLHWYLQKPGQSPQLLIYSGSYRASGVPDRFSGSGSGTDFTLKISRVEAEDVGVYYCQQGYSTPHTFGGGTKVEIK
notes: as for B1
B8: iggrefmat 1-29 (antibody, V domains shown)
VH: QVQLVQSGAEVKKPGASVKVSCKVSRGTFSTYAIHWVRQAPGKGLEWMGGINAATGYTIYAQKFQGRVTMTEDTSTDTAYMELSSLKSEDTAVYYCVRSVGSIEYWGQGTLVTVSS
VL: DIQMTQSPSSVSASVGDRVTITCRASQGISNHLAWYQQKPGKAPKLLIYGASSRQSGVPSRFSGSGSGTDFTLTISSLQPEDFANYYCLHDRYPYTFGGGTKVEIK
notes: Tested as an antibody captured by anti-human IgG Fc; also called C01-Lib1-Pl1
B9: G05-Lib3-Pl1 (antibody, V domains shown)
VH: EVQLVESGGGLVQPGGSLRLSCAASGFTFSDYSMSWVRQAPGKGLELVASISESGHDTYYPDSVKGRFTISRDNAKNSLYLQMNSLRAEDTAVYYCARGIAVAGTRAFDIWGQGTMVTVSS
VL: DIVMTQSPLSLPVTPGEPASISCRSSQSLLYSTGYNYLHWYLQKPGQSPQLLIYMGSYRASGVPDRFSGSGSGTDFTLKISRVEAEDVGVYYCMQALPTPPITFGGGTKVEIK
notes: as for B1
B10: iggrefmat 2-16 (antibody, V domains shown)
VH: QVQLVESGGGLVQPGGSLRLSCAASGLTFSGSAMSWVRQAPGKGLELVASITGSGTRTYYPDSVKGRFTISRDNAKNSLYLQMNSLRAEDTAVYYCARGLHAFDIWGQGTMVTVSS
VL: DIVMTQSPLSLPVTPGEPASISCRSSQSLLSSYGYHNLHWYLQKPGQSPQLLIYMGYNRASGVPDRFSGSGSGTDFTLKISRVEAEDVGVYYCMQGMHLPITFGGGTKVEIK
notes: Tested as an antibody captured by anti-human IgG Fc; also called C07-Lib3-Pl1
B11: iggrefmat 3-4 (antibody, V domains shown)
VH: EVQLVQSGAEVKKPGASVKVSCKASGYTFSDHYISWVRQAPGQGLEWMGWMNPTSGHTNYAQKLQGRGTMTTDPSTSTAYMELRSLRSDDTAVYYCARVSGRWLPAVDGHYYYYYGMDVWGQGTTVTVSS
VL: ESALTQPASVSGSPGQSITISCTGTGSNIGAGYGVSWYQQHPGKAPKLMIYANINRPPGVSNRFSGSKSGNTASLTISGLQAEDEADYYCSSYTSSSWMFGGGTKLTVL
notes: Tested as an antibody captured by anti-human IgG Fc; also called D11-Lib4-Pl1
B12: iggrefmat 3-11 (antibody, V domains shown)
VH: EVQLVQSGAEVKKPGASVKVSCKASGYTFATYPISWVRQAPGQGLEWMGGMNPTTGDTIYAQKLQGRGTMTTDPSTSTAYMELRSLRSDDTAVYYCARGDRAWFDPWGQGTLVTVSS
VL: B11 VL
notes: Tested as an antibody captured by anti-human IgG Fc; also called H03-Lib6-Pl2
B13: C03-Lib1-Pl1 (antibody, V domains shown)
VH: QVQLVQSGAEVKKPGASVKVSCKVSGYTFTDLPIHWVRQAPGKGLEWMGGINPHSGDAIYAQKFQGRVTMTEDTSTDTAYMELSSLKSEDTAVYYCTTVIAVAGSNDSRPCGRSYLCVLDYWGQGTLVTVSS
VL: DIQMTQSPSSVSASVGDRVTITCNASQGIGHSLAWYQQKPGKAPKLLIYGATSRATGVPSRFSGSGSGTDFTLTISSLQPEDFANYYCLQDYIYPFTFGGGTKVEIK
notes: as for B1
B14: B07-Lib3-Pl1 (antibody, V domains shown)
VH: EVQLVESGGGLVQPGGSLRLSCAASGFTLDNYVMSWVRQAPGKGLELVASISGSSADTYYPDSVKGRFTISRDNAKNSLYLQMNSLRAEDTAVYYCAKGIAAGYGMDVWGQGTTVTVSS
VL: DIVMTQSPLSLPVTPGEPASISCRSSQSLLHSSGYTYLHWYLQKPGQSPQLLIYATSYRAPGVPDRFSGSGSGTDFTLKISRVEAEDVGVYYCMQATHPYTFGGGTKVEIK
notes: as for B1
B15: iggrefmat 3-13 (antibody, V domains shown)
VH: EVQLVQSGAEVKKPGASVKVSCKASGFPFSTSAISWVRQAPGQGLEWMGWMDPATGQTNYAQKLQGRGTMTTDPSTSTAYMELRSLRSDDTAVYYCARALRYCSGGRCQGFHGMDVWGQGTTVTVSS
VL: ESALTQPASVSGSPGQSITISCTGTNIAAKSVSWYQQHPGKAPKLMIYANINRPPGVSNRFSGSKSGNTASLTISGLQAEDEADYYCSSYTSSSWMFGGGTKLTVL
notes: Tested as an antibody captured by anti-human IgG Fc; also called C11-Lib4-Pl1

Target: T1, Recombinant human Notch4
Test: SPR, antibody captured by anti-human IgG Fc on HC30M chip, Notch4 as analyte
Method: Binding kinetics measurements. Following expression and purification, clones were characterized using surface plasmon resonance (SPR) to determine binding kinetics and epitope binding activity. HC30M chips (polycarboxylate hydrogel surfaces having medium charge density and 30 nm coating thickness) were coated with anti-human Fc antibodies (unlabeled goat anti-human IgG Fc from Southern Biotech) to capture the candidate antibodies. Candidate antibodies were diluted to 10 μg/mL in HEPES-buffered saline Tris-EDTA (HBSTE)) and exposed to the surfaces for 15 minutes. After stabilizing baseline using HBSTE, Notch4 analytes were injected sequentially from a lowest concentration of 0.41 nM to a highest concentration of 300 nM. (Notch4 was diluted in HBSTE+0.5 mg/mL bovine serum albumin (BSA) to obtain a series of 3-fold dilutions.) To assess specificity, experiments were also run using Notch2 as an analyte in a single injection at 100 nM in HBSTE+0.5 mg/mL.

Kd	Binder
1.6 nM	B1
0.38 nM	B2
5.6 nM	B3
3.4 nM	B4
1.5 nM	B5
1.5 nM	B6
0.41 nM	B7
6.1 nM	B8
0.89 nM	B9
1.5 nM	B10
2.6 nM	B11
0.92 nM	B12
5.3 nM	B13
5 nM	B14
2.5 nM	B15
